Data published in publication PMC5309861, “Mechanistic insight into the substrate specificity of 1,2-β-oligoglucan phosphorylase from Lachnoclostridium phytofermentans” (Scientific Reports, 2017).

Substrate: O=P(O)(O)O[C@H]1O[C@H](CO)[C@@H](O)[C@H](O)[C@H]1O
Assay: phosphate release (molybdate colorimetry), Michaelis-Menten fit
Type: biochemical, Lachnoclostridium phytofermentans
Conditions: synthetic reaction, donor, pH 7.0, 30 °C, acceptor not stated
From the text: phosphate release (molybdate colorimetry), Michaelis-Menten fit on LpSOGP

B1: LpSOGP (Lachnoclostridium phytofermentans ISDg) (protein)
chain: MILKTLSAPIILENSNSTFTFLPGGDNFEWIHESIMINAFQGNTLDGSTNNLYLRIYKDNSLAFYPLIGMNSKSTIKSGTSTLIFEGTAEDISYTVTFRLTPYGIWFWDISLSGNCNKADIIYSQDIGVGTKGSVNSNELYLAQYLGHSIFQGDYGYVICSRQNMAQGDLFPYLQQGSLGIRSIAYSTDGTQFFGLSYKKTNIPEALYGDLPSKNKQYELAHTALQTEAFSLSGTKQFSFYGICKTNHPEVIREIEYIQELEKAYAYHESGEILPVNVPTLQNIGAPYASSRWDAKQVEHYFPKRLLEEKEEEALLSFFTPEKSHVVLQDKELTTERPHGHILMTNFDVTKVPQGVVSSTNYMYGAFNCQFVVGNTTYNKLLSNHRGLLNIQKDSGQRIFIKIGDCYRQLTLPAAYEMNVAGSTWYYQLDEDVLIITSFAMYNRPEIVLKVQSLGHKKYDFIVTHQLTVGPNEYENEIKLTREGNILQLSPTDPVVTNHFYPELSFRMRIPEDCTLSDDSIFFHNNTTINPSLLSIEILQKSSFDIVMQGFDTGNVIPFLDQYDYKEQLEAYRIYYDQLVCNFKLSAPDKIPLSAEKLNAIIHWYAHDALIHFASPHGLEQSGGAAWGTRDVCQGPIEFFLTTGHFDLVRHILITLYSHQIEGGFEWPQWFMFDHYPIHQEDCHGDVVFWPLKAISDYIQATGDTSILNELVDYRTAKDALPTNQPETILIHIKRAVTTIKNRYLSGTALISYAGGDWDDTLQPANSELKENLVSAWTQALAEQTLELLCSAIKGIDHDFSKELSHMANDIRTSFYQYLIKDGVIAGFLYRESEEHMKYMLHPDDTESSIHYRLLPLTRSIIAQLADFKLATRNLEIIDEHLACPDGVRLMDHPASYSGGISKIFLRAEQAANVGREISLQYVHAHIRYIEALATMGLSKKAWDALMRINPILLTDYVPNALTRQSNVYFSSSEGCFDDRYEYAKNFDKLRTGDINVKGGWRLYSSGPGIYIRRIIADLLGIRFGHNVIHIDPVVTKELDGVTLQFTCFGKTVFFTYHVDDTMDKHICVKSNNNILPGDNLNNIYRDGGIQIAKDVFLSAAMSDNNFHIYVKN
notes: full length with C-terminal His6 tag (pET28a, kept); E. coli BL21(DE3); theoretical mass 169640 Da as printed; monomer; structure residues 1-1113
**Q.** Which results are given for B1?
**A.** Km: 2600 ± 300 µM; kcat: 28 ± 1 s⁻¹; kcat/Km: 11000 ± 1000 M⁻¹ s⁻¹
